± gives the standard deviation.
Experiment: protein stability index of a GFP-peptide fusion (GPS, HEK-293T) (PSI 1-6); higher = more stable
[1] = treatment: DMSO, c terminus: a fixed tail appended
[2] = treatment: MLN4924 1 uM, 8 h, c terminus: a fixed tail appended
[3] = treatment: DMSO, c terminus: native
[4] = treatment: MLN4924 1 uM, 8 h, c terminus: native
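Also: 24-mer peptide tiles fused after GFP, lentivirally expressed, FACS-sorted into six equal bins by GFP/DsRed ratio, decoded by Illumina sequencing, PSI is the read-weighted mean bin number.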

Sequence | protein stability index [1] | protein stability index [2] | protein stability index [3] | protein stability index [4]
SEADPQALLQAMKDLDGMDADILG [FBF1] | 5.28 ± 0.25 | 5.16 ± 0.35 | – | –
GEQPEPGEAAAGGAAEEARRLEQR [ACBD3] | 5.53 ± 0.34 | 5.44 ± 0.24 | – | –
EGHSIVGFAMYYFTYDPWIGKLLY [SAT1] | 3.07 ± 0.16 | 3.02 ± 0.99 | – | –
LGRGLVGGQEEASQEAGLPAGAGP [SEPHS2] | 5.23 ± 0.47 | 4.75 ± 0.65 | – | –
EVFYYSCEYNFVSPSKSFWTRITC [CFHR2] | 3.39 ± 0.15 | 2.31 ± 0.27 | – | –
QEIEDKMKGFSFKEDTLLLIAEVM [C8orf76] | 2.54 ± 0.68 | 2.16 ± 0.44 | – | –
RHKSGVHQPPQAGAGDVVLLQREL [LYSMD4] | 4.08 ± 0.22 | 4.16 ± 0.092 | – | –
RITITESNMKSRYTTEFHELEKIG [WEE1] | 3.03 ± 0.37 | 3.59 ± 0.55 | – | –
AHAGAVHNGKIYISGGVHNGEYVP [KLHL14] | 3.03 ± 0.28 | 2.82 ± 0.41 | – | –
SIGLRDYAGNLHESGVHGALLALD [PPFIA4] | 3.48 ± 0.11 | 3.73 ± 0.45 | – | –
NHEEDAGVRCNTPAMGLQKKLRLN [LOXL2] | 4.64 ± 0.12 | 4.5 ± 0.36 | – | –
LLLASGLVITDFFGHLINGAIAVF [PTGFR] | 3.29 ± 0.72 | 3.19 ± 0.86 | – | –
RHQRIHTGERPYECNECGKAFSRS [ZSCAN9] | 3.29 ± 0.24 | 3.82 ± 0.31 | – | –
LTASTMEILLDFVYTETVHVTVEN [KLHL12] | 2.9 ± 0.79 | 3.29 ± 1.4 | – | –
EGARAAGLGELGAALLQLVRRLQA [ESRRA] | 3.04 ± 0.44 | 3 ± 0.18 | – | –
RYLFEEDNLLRSTQKLSHSTKPSG [MATN2] | 3.82 ± 0.3 | 3.92 ± 0.3 | – | –
DLKPENIMLLDKNVPNPRIKLIDF [DAPK3] | 2.79 ± 0.084 | 2.93 ± 0.21 | – | –
VDLSRILNEMRDQYEKMAEKNRKD [KRT17] | 3.52 ± 0.24 | 3.76 ± 0.36 | – | –
EILGCPLPDPNNYYHRRNEMTTTD [CPXM2] | 3.24 ± 0.21 | 3.54 ± 0.56 | – | –
KIPGTGALASAAAAVSGSKAKAE [RTN2] | – | – | 5.34 ± 0.14 | 5.32 ± 0.14
RAPSERSGPAASEHSHRSHHSLAS [DVL3] | 4.68 ± 0.28 | 4.68 ± 0.21 | – | –
LGWNSTERSLRLQARYHDTPYKPP [MYORG] | 2.88 ± 0.3 | 3.2 ± 0.22 | – | –
RLFPYSQYYRWLNYGGVIKNYFQH [PRIM1] | 2.15 ± 0.75 | 2.22 ± 0.52 | – | –

Sequence | protein stability index [1] | protein stability index [2] | protein stability index [3] | protein stability index [4]
ASLNGYRLGERVLQVSFKTSKQHK [ELAVL3] | 3.45 ± 0.13 | 3.52 ± 0.32 | – | –
QTYFRQNRDEVLDNLLAFVCDIRP [ATP6V1G1] | 2.64 ± 0.44 | 2.27 ± 0.23 | – | –
FSKSKELHPDRDPGNPSLHSRFVE [DNAJC4] | 3.91 ± 0.25 | 4.22 ± 0.12 | – | –
NGTGDSNDFWRIEVVNRKFGNRIK [POMT2] | 3.25 ± 0.26 | 3.46 ± 0.41 | – | –
ASKWGMSYDELCFLEQRPQSPTLE [EDARADD] | 3.67 ± 0.12 | 3.81 ± 0.062 | – | –
VERAAAAAAAAAGGDAGHAPFPPP [C6orf223] | 5.08 ± 0.65 | 5.22 ± 0.4 | – | –
EEQSDQSFSSLEPDNEQLMEEVIS [IQUB] | 5.34 ± 0.27 | 5.61 ± 0.18 | – | –
TAYWALAGSIGGLFFAVGIAQYAL [SLC22A15] | 3.06 ± 0.15 | 2.89 ± 0.18 | – | –
KAKANGITMYAVGVGKAIEEELQE [MATN2] | 3.83 ± 0.33 | 4.12 ± 0.32 | – | –
FDVGGQRSERKKWIHCFEGVTAII [GNAI1] | 2.29 ± 0.44 | 1.95 ± 0.37 | – | –
LGRSHDTVQEAATSRRARASKKTA [MFSD9] | 5.2 ± 0.21 | 5.31 ± 0.16 | – | –
SLVRDTIARVHGTFGAAACSIGFA [POP5] | 2.31 ± 0.38 | 2.48 ± 0.22 | – | –
ISEEIQMSTKESDFLCLLGVSYTF [MIA2] | 2.4 ± 0.45 | 2.76 ± 0.92 | – | –
LVLKAHHDIVRFLVQLDDYRFASA [WDR41] | 2.96 ± 0.52 | 2.96 ± 0.67 | – | –
RPPFGAAAVPGTQLSPSPTPASQS [SNAP91] | 4.79 ± 0.16 | 4.86 ± 0.055 | – | –
LPPEKGREVAKELGIPYYETSVVA [RHOBTB2] | 3.55 ± 0.24 | 3.55 ± 0.18 | – | –
LTSMRRLSSIKRDTNSIAKAIKAR [STX11] | 3.4 ± 0.26 | 3.64 ± 0.34 | – | –
PQEFQKTVSTMYYLWMCSTLALLL [SCAMP3] | 2.88 ± 0.47 | 2.77 ± 0.67 | – | –
TVDCEPSDLFRLQEYNIPGVIQSV [CDS2] | 3.01 ± 0.29 | 3.16 ± 0.25 | – | –
SHSASATGNVCIEEIDVDGKFIRL [LMNB1] | 3.14 ± 0.22 | 3.48 ± 0.23 | – | –
GSPSRPLSRRQLCPLTPGPGKALG [C2CD2L] | 3.81 ± 0.35 | 4.11 ± 0.11 | – | –
IRLMQRCWQGDPRVRPTFQEITSE [RIPK4] | 2.798 ± 0.002 | 2.78 ± 0.45 | – | –
PGSILYSSSGDLADLENEDIFPEL [DLC1] | 4.69 ± 0.14 | 4.77 ± 0.32 | – | –

Sequence | protein stability index [1] | protein stability index [2] | protein stability index [3] | protein stability index [4]
KPGKGADLSKPPCRKAKEIRKERK [ATE1] | 4.65 ± 0.44 | 5.04 ± 0.3 | – | –
VMSEGLGMRYAFIGPLETMHLNAE [CRYL1] | 2.05 ± 0.23 | 2.05 ± 0.4 | – | –
RSLQLRIQELELQAQIHGLPVPPT [TFE3] | 3.01 ± 0.19 | 2.89 ± 0.21 | – | –
TVAASDPDTGDNARLTYSIVGNQV [PCDHGC5] | 4.36 ± 0.26 | 4.31 ± 0.18 | – | –
YSIGRSVEGRHLYVLEFSDHPGIH [CPN1] | 2.07 ± 0.23 | 2.07 ± 0.12 | – | –
VVLGNIIKKKGWRRSSLVITTKIF [KCNAB2] | 2.86 ± 0.34 | 2.74 ± 0.55 | – | –
YSQGRLSEAEEALYLIAKRNRKLK [SLC22A15] | 2.81 ± 0.2 | 3 ± 0.063 | – | –
TEGNPRWEQTHLTYRIENYTPDLP [MMP1] | 3.37 ± 0.099 | 3.51 ± 0.35 | – | –
MGHIKPDLIDVDLIRGSTFAKAKP [PHTF1] | 3.56 ± 0.24 | 3.67 ± 0.35 | – | –
DLVPKQAIQVQEADEAGWGGSGG [DLX1] | – | – | 2.96 ± 0.75 | 3.09 ± 0.087
ILRCWKCRKCIASSGCFMEYLENQ [RNF180] | 2.36 ± 0.4 | 2.43 ± 0.46 | – | –
SGLDSPSHAAPGPSPDSWVPRPGT [FCHO1] | 4.08 ± 0.18 | 4.25 ± 0.19 | – | –
VRERILGADNIDVSHPIIYRGAVY [FEM1B] | 2.13 ± 0.29 | 2.57 ± 0.32 | – | –
FTFLRPLSVQQPTALALEPDAIRS [PCDHGC5] | 2.89 ± 0.3 | 3.03 ± 0.31 | – | –
RVRVELQEQNGRLQAELAAQEALR [LRRC45] | 4.58 ± 0.079 | 3.98 ± 0.55 | – | –
EAKNYLLLPQERPLMQGPRTRPRK [KLHL20] | 4.25 ± 0.097 | 4.17 ± 0.058 | – | –
AGPGGGAERRRAGRLLLTLPLLRQ [ESRRA] | 2.53 ± 0.29 | 2.84 ± 0.21 | – | –
RYPTISMVKPLLHMLLNTTLNIKE [ZBED1] | 2.83 ± 0.58 | 3.37 ± 0.72 | – | –
SFCHGSSLKRHLKTHTGEKPHRCH [ZNF449] | 3.45 ± 0.27 | 3.61 ± 0.34 | – | –
DTCPEVGFFDVLGNDRRREWAALG [ACBD3] | 3.09 ± 0.4 | 3.76 ± 0.14 | – | –
IFSAPNYCYRCGNQAAIMELDDTL [PPP2CA] | 2.37 ± 0.6 | 2.29 ± 0.4 | – | –
AAWIGGFLHSLVQFLFIYQLPFCG [OR4A15] | 3.92 ± 0.8 | 3.21 ± 0.6 | – | –
EIDTPDKFGRTCLHAAAAGGNVEC [ANKRD44] | 4.24 ± 0.16 | 4.37 ± 0.23 | – | –

Sequence | protein stability index [1] | protein stability index [2] | protein stability index [3] | protein stability index [4]
RYADLEAVNRARRPLARPIKPNEI [RHOBTB2] | 3.77 ± 0.21 | 3.7 ± 0.22 | – | –
ERQGNGQQAMSLAILRVIRLVRVF [KCNA3] | 2.3 ± 0.13 | 2.56 ± 0.59 | – | –
DVTSLSSQLPDTPNSMVPSPVET [ISL2] | – | – | 4.24 ± 0.1 | 4.39 ± 0.34
ESYTKMCDPGMTAFEPEALGNLVE [CAMK2A] | 4.1 ± 0.31 | 4.16 ± 0.33 | – | –
VPVHSFASLNIKTTVPEVEPPQDS [PRPH] | 4.97 ± 0.2 | 4.99 ± 0.073 | – | –
DAGGWVLIDRSGRHFGTILNYLRD [KCTD13] | 2.33 ± 0.25 | 2.08 ± 0.42 | – | –
FQQPAPEYHQPQAPANVAKIQLRL [LOXL2] | 2.81 ± 0.23 | 3.08 ± 0.28 | – | –
VIAKWDYTAQQDQELDIKKNERLW [NCK2] | 3.28 ± 0.093 | 3.4 ± 0.32 | – | –
TDLVQFLLFKYQMKEPITKAEILE [MAGEA10] | 2.48 ± 0.43 | 2.2 ± 0.23 | – | –
RKDLAKLHREVRSTPLTATPGGRG [VTI1B] | 4.38 ± 0.17 | 4.45 ± 0.17 | – | –
NKTQQVIHIIDFGLAKEYIDPETK [CSNK1G3] | 2.48 ± 0.52 | 2.47 ± 0.41 | – | –
ERPQDRDTPVQNKRRRSVTPPEEQ [CDC25B] | 5.34 ± 0.18 | 5.32 ± 0.23 | – | –
PPAQGRVSRRLSPRKVSTCTDHEL [TRIM9] | 5.031 ± 0.046 | 4.87 ± 0.35 | – | –
NSEVYLPNINKISMQAVLDYLYTK [RHOBTB1] | 2.17 ± 0.29 | 2.35 ± 0.16 | – | –
VVDIFQTVKMLRTQRPAMVQTEDQ [PTPRD] | 3.23 ± 0.32 | 3.06 ± 0.27 | – | –
LGYAVSTFAMVKGYFFPTSARDCK [DHCR7] | 2.09 ± 0.11 | 2.09 ± 0.13 | – | –
RSNVDFLETPELTSTMLVPASWWI [NECAB1] | 2.21 ± 0.43 | 2.23 ± 0.48 | – | –
DCPMDSSSSRDTDWVVVKEPVIKV [PI4K2A] | 3.6 ± 0.4 | 4 ± 0.53 | – | –
LLKPHSYGRFIRWLNKEKGIFKIE [SPDEF] | 2.49 ± 0.66 | 2.4 ± 0.46 | – | –
EGPALVEIDRSVENTLLNSQMVST [MIA2] | 4.54 ± 0.26 | 4.63 ± 0.22 | – | –
